Literature values, collected in patent publication US9919022B2, “Use of angiotensin II (AII) receptor agonists to prevent or reduce hemodialysis-associated skeletal muscle cramps” (priority 2015, dated 2018).
Like-named read-outs stand apart in the source and are kept apart here.

In the case of `CC[C@H](C)[C@H](NC(=O)[C@H](Cc1ccc(O)cc1)NC(=O)[C@@H](N)C(C)C)C(=O)N[C@@H](Cc1cnc[nH]1)C(=O)N1CCC[C@H]1C(=O)N[C@@H](Cc1ccccc1)C(=O)O` [angiotensin IV, Val-Tyr-Ile-His-Pro-Phe], the serum half-lives (serum) is given as “less than one”.

For “Arg-Val-Tyr-Ile-His-Pro-Phe [Angiotensin III]”, the serum half-lives (in vivo) is listed as “less than one”.

In the case of “H-Asp-Arg-Val-Tyr-Ile-His-Pro-Phe-OH (H-DRVYIHPF-OH; listed as Homo sapiens) [angiotensin II]”, the terminal serum half-life (serum) is listed as “less than 30 minutes”.
